Values of other authors in publication PMC8878198.

Target: CXCL8 (Homo sapiens) (UniProt P10145)
Sequence (P10145 28-99): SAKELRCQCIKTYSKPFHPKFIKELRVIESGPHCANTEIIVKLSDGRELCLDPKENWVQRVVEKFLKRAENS

Sequence of CXCR2 (P25025 whole entry): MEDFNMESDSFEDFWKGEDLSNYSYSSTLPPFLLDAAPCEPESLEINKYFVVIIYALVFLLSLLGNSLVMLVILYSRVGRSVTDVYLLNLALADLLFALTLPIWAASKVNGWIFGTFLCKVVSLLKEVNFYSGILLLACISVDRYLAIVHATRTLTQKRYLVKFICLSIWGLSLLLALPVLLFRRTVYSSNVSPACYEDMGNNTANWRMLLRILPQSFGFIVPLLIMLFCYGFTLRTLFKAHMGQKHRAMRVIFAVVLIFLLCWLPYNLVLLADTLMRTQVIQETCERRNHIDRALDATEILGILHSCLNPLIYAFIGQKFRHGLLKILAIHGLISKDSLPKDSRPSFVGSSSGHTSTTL

Kd: 700 pM
Substance: CXCR2 (from UniProt P25025)
